B1: NRC3_wobSeed29_DR1_T20C_o1 (dsDNA)
DNA 1: GCGCTTACGGGTCAAAGGTCATAGCATGAATAGAATGCGATTGACAGCGTAGAATGAAGG
DNA 2: CCTTCATTCTACGCTGTCAATCGCATTCTATTCATGCTATGACCTTTGACCCGTAAGCGC
B2: NRC3_wobSeed42_DR1_C19T_o1 (dsDNA)
DNA 1: GCTATACAGGGTCAAAGGTCAGAGTACGAATGTCGAGCGATTGACAGCGTAGAATGAAGG
DNA 2: CCTTCATTCTACGCTGTCAATCGCTCGACATTCGTACTCTGACCTTTGACCCTGTATAGC
B3: NRC3_wobSeed99_DR4_A12T_o1 (dsDNA)
DNA 1: GCTCTCGGAGGTCACGAAAGGTCAGAGCTCGACATCGCGATTGACAGCGTAGAATGAAGG
DNA 2: CCTTCATTCTACGCTGTCAATCGCGATGTCGAGCTCTGACCTTTCGTGACCTCCGAGAGC
B4: NRC3_wobSeed37_DR1_G22T_o1 (dsDNA)
DNA 1: GCCGTCCAAGGTCAAAGGTCATTGAAGAGATGACGGGCGATTGACAGCGTAGAATGAAGG
DNA 2: CCTTCATTCTACGCTGTCAATCGCCCGTCATCTCTTCAATGACCTTTGACCTTGGACGGC
B5: NRC3_wobSeed45_DR1_A20C_o1 (dsDNA)
DNA 1: GCTGTCAAAGTTCAAAGGTCACGTAAGTATCCACACGCGATTGACAGCGTAGAATGAAGG
DNA 2: CCTTCATTCTACGCTGTCAATCGCGTGTGGATACTTACGTGACCTTTGAACTTTGACAGC
B6: NRC3_wobSeed1_DR0_T8G_o1 (dsDNA)
DNA 1: GCCAAACGAGGTCAAGGTCAAAGTCGGTTTGTGCCAGCGATTGACAGCGTAGAATGAAGG
DNA 2: CCTTCATTCTACGCTGTCAATCGCTGGCACAAACCGACTTTGACCTTGACCTCGTTTGGC

biological target: LXRa:RXRa (Homo sapiens, UniProt Q13133;P19793 full;full); assay: no ligand; PBM; 270 nM : 90 nM RXRa; PBS pH 7.4, 2% milk, 0.02% Triton X-100, 1 mM DTT, BSA, 0.4 mg/ml salmon testes DNA; details: tags: His kept;His cleaved; copies: 1;1; label: surface-attached array probe
Sequence (Q13133 whole entry, chain 1 of 2): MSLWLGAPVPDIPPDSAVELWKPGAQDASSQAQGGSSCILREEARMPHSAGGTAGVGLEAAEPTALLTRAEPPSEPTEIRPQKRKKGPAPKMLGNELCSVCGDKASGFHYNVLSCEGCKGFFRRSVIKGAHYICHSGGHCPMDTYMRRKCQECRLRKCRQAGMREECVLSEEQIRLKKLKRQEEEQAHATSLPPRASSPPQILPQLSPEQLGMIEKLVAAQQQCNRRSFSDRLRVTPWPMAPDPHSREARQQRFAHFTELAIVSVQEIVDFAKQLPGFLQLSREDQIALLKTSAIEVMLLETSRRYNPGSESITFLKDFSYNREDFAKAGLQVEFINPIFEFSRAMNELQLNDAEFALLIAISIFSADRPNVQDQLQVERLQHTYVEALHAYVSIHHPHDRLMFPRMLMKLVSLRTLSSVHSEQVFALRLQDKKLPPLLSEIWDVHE
Sequence (P19793 whole entry, chain 2 of 2): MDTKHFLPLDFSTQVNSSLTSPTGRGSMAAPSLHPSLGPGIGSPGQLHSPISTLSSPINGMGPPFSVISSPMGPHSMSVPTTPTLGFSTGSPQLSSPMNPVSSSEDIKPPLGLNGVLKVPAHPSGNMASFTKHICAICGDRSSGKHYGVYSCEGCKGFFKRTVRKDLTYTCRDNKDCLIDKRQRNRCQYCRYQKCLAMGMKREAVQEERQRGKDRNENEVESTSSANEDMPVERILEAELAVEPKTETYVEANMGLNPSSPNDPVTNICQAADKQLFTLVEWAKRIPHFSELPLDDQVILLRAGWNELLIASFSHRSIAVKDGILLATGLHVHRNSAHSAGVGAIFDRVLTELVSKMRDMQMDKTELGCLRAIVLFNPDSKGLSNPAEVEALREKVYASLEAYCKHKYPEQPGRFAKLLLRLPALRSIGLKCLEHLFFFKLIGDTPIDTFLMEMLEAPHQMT
Method in brief: (§1)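 Binding z-scores were set against random background probes. The data came from custom Agilent 4×180K protein-binding microarrays carrying double-stranded probes with 34-nt variable regions, incubated 1 h with ligand-free nuclear receptor dimers. Partner-specific antibodies detected binding, and scanned fluorescence was regression-normalized.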

Row | Binder | binding signal
1 | B1 | 7.26 PBM z-score against 500 random probes
2 | B2 | 7.52 PBM z-score against 500 random probes
3 | B3 | 8.32 PBM z-score against 500 random probes
4 | B4 | 7.79 PBM z-score against 500 random probes
5 | B5 | 8.34 PBM z-score against 500 random probes
6 | B6 | 6.82 PBM z-score against 500 random probes

biological target: FXR:RXRa (Homo sapiens, UniProt Q96RI1;P19793 full;full); assay: as above; details: tags: His kept;His cleaved; copies: 1;1; label: surface-attached array probe
Method in brief: as §1

Row | Binder | binding signal
7 | B1 | 8.57 PBM z-score against 500 random probes
8 | B2 | 8.5 PBM z-score against 500 random probes
9 | B3 | 8.33 PBM z-score against 500 random probes
10 | B4 | 8.93 PBM z-score against 500 random probes
11 | B5 | 9.44 PBM z-score against 500 random probes
12 | B6 | 8.73 PBM z-score against 500 random probes

biological target: LXRb:RXRa (Homo sapiens, UniProt P55055;P19793 full;full); assay: as above; details: tags: His kept;His cleaved; copies: 1;1; label: surface-attached array probe
Method in brief: as §1

Row | Binder | binding signal
13 | B1 | 7.5 PBM z-score against 500 random probes
14 | B2 | 7.29 PBM z-score against 500 random probes
15 | B3 | 7.35 PBM z-score against 500 random probes
16 | B4 | 7.46 PBM z-score against 500 random probes
17 | B5 | 7.9 PBM z-score against 500 random probes
18 | B6 | 6.16 PBM z-score against 500 random probes

biological target: RARg:RXRa (Homo sapiens, UniProt P13631;P19793 full;full); assay: as above; details: tags: His kept;His cleaved; copies: 1;1; label: surface-attached array probe
Sequence (P13631 whole entry, chain 1 of 2): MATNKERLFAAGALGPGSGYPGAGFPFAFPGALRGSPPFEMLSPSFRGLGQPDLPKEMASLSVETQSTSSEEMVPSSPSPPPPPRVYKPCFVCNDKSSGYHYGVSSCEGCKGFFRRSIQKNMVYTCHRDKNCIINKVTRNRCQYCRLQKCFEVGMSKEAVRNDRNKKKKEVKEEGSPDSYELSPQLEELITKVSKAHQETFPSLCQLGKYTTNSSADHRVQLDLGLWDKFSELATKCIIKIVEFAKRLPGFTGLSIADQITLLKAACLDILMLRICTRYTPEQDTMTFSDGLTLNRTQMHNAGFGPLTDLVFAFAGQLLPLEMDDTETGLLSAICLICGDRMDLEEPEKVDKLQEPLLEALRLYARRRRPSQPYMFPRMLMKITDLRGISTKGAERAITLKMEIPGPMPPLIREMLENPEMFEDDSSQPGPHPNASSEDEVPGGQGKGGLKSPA
Sequence (P19793 whole entry, chain 2 of 2): as the sequence (P19793 whole entry, chain 2 of 2) above
Method in brief: as §1

Row | Binder | binding signal
19 | B1 | 9.01 PBM z-score against 500 random probes
20 | B2 | 8.67 PBM z-score against 500 random probes
21 | B3 | 8.59 PBM z-score against 500 random probes
22 | B4 | 9.4 PBM z-score against 500 random probes
23 | B5 | 9.56 PBM z-score against 500 random probes
24 | B6 | 7.53 PBM z-score against 500 random probes

biological target: RARa:RXRa (Homo sapiens, UniProt P10276;P19793 full;full); assay: as above; details: tags: His kept;His cleaved; copies: 1;1; label: surface-attached array probe
Method in brief: as §1

Row | Binder | binding signal
25 | B1 | 9.33 PBM z-score against 500 random probes
26 | B2 | 9.11 PBM z-score against 500 random probes
27 | B3 | 7.86 PBM z-score against 500 random probes
28 | B4 | 9.26 PBM z-score against 500 random probes
29 | B5 | 9.47 PBM z-score against 500 random probes
30 | B6 | 7.18 PBM z-score against 500 random probes

biological target: VDR:RXRa (Homo sapiens, UniProt P11473;P19793 full;full); assay: as above; details: tags: His kept;His cleaved; copies: 1;1; label: surface-attached array probe
Sequence (P11473 whole entry, chain 1 of 2): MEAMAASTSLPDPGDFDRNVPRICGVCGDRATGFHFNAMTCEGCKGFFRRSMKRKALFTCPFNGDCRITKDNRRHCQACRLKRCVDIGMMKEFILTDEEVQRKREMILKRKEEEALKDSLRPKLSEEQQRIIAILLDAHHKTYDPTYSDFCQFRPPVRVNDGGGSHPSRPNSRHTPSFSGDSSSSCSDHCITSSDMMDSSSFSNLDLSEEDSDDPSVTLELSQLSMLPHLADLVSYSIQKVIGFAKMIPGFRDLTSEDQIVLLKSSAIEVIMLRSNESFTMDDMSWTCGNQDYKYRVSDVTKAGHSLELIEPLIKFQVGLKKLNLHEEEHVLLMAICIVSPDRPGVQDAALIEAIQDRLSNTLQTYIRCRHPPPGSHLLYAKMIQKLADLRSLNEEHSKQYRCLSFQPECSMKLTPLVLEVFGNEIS
Sequence (P19793 whole entry, chain 2 of 2): as the sequence (P19793 whole entry, chain 2 of 2) above
Method in brief: as §1

Row | Binder | binding signal
31 | B1 | 7.18 PBM z-score against 500 random probes
32 | B2 | 7.15 PBM z-score against 500 random probes
33 | B3 | 6.9 PBM z-score against 500 random probes
34 | B4 | 7.41 PBM z-score against 500 random probes
35 | B5 | 7.65 PBM z-score against 500 random probes
36 | B6 | 6.53 PBM z-score against 500 random probes

biological target: PXR:RXRa (Homo sapiens, UniProt O75469;P19793 full;full); assay: as above; details: tags: His kept;His cleaved; copies: 1;1; label: surface-attached array probe
Method in brief: as §1

Row | Binder | binding signal
37 | B1 | 7.5 PBM z-score against 500 random probes
38 | B2 | 7.29 PBM z-score against 500 random probes
39 | B3 | 7.53 PBM z-score against 500 random probes
40 | B4 | 7.7 PBM z-score against 500 random probes
41 | B5 | 8.16 PBM z-score against 500 random probes
42 | B6 | 6.83 PBM z-score against 500 random probes

biological target: RARb:RXRa (Homo sapiens, UniProt P10826;P19793 full;full); assay: as above; details: tags: His kept;His cleaved; copies: 1;1; label: surface-attached array probe
Method in brief: as §1

Row | Binder | binding signal
43 | B1 | 5.71 PBM z-score against 500 random probes
44 | B2 | 5.62 PBM z-score against 500 random probes
45 | B3 | 6.17 PBM z-score against 500 random probes
46 | B5 | 6.42 PBM z-score against 500 random probes
47 | B6 | 5.8 PBM z-score against 500 random probes

biological target: PPARa:RXRa (Homo sapiens, UniProt Q07869;P19793 full;full); assay: as above; details: tags: GST kept;His cleaved; copies: 1;1; label: surface-attached array probe
Sequence (Q07869 whole entry, chain 1 of 2): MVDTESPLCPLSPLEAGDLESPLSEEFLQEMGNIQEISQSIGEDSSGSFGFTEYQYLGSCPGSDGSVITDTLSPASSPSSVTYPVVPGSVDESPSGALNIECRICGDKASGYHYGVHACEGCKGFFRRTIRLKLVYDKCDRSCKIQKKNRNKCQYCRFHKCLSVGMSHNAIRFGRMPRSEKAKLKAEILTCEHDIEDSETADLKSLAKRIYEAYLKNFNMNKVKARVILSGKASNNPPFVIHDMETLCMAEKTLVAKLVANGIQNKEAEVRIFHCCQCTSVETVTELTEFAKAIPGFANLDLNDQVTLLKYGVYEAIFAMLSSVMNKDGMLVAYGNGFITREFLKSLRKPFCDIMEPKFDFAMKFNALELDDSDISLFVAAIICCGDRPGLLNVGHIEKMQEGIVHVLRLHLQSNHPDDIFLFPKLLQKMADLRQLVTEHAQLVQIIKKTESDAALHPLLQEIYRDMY
Sequence (P19793 whole entry, chain 2 of 2): as the sequence (P19793 whole entry, chain 2 of 2) above
Method in brief: as §1

Row | Binder | binding signal
48 | B1 | 7.49 PBM z-score against 500 random probes
49 | B2 | 7.46 PBM z-score against 500 random probes
50 | B3 | 6.75 PBM z-score against 500 random probes
51 | B5 | 7.56 PBM z-score against 500 random probes
52 | B6 | 6.72 PBM z-score against 500 random probes

biological target: THRa:RXRa (Homo sapiens, UniProt P10827;P19793 full;full); assay: no ligand; PBM; 90 nM : 90 nM RXRa; PBS pH 7.4, 2% milk, 0.02% Triton X-100, 1 mM DTT, BSA, 0.4 mg/ml salmon testes DNA; details: tags: His kept;His cleaved; copies: 1;1; label: surface-attached array probe

Row | Binder | binding signal
53 | B1 | 4.82 PBM z-score against 500 random probes
54 | B2 | 4.83 PBM z-score against 500 random probes
55 | B3 | 5.45 PBM z-score against 500 random probes
56 | B4 | 5.12 PBM z-score against 500 random probes
57 | B5 | 5.33 PBM z-score against 500 random probes
58 | B6 | 4.94 PBM z-score against 500 random probes

biological target: RXRa (Homo sapiens, UniProt P19793); assay: no ligand; PBM; 180 nM; PBS pH 7.4, 2% milk, 0.02% Triton X-100, 1 mM DTT, BSA, 0.4 mg/ml salmon testes DNA; details: tags: His cleaved; chain copies: 2; label: surface-attached array probe

Row | Binder | binding signal
59 | B1 | 10.8 PBM z-score against 500 random probes
60 | B2 | 10.7 PBM z-score against 500 random probes
61 | B3 | 8.83 PBM z-score against 500 random probes
62 | B4 | 11.1 PBM z-score against 500 random probes
63 | B5 | 11 PBM z-score against 500 random probes
64 | B6 | 8.3 PBM z-score against 500 random probes

biological target: PPARg:RXRa (Homo sapiens, UniProt P37231;P19793 full;full); assay: no ligand; PBM; 180 nM : 90 nM RXRa; PBS pH 7.4, 2% milk, 0.02% Triton X-100, 1 mM DTT, BSA, 0.4 mg/ml salmon testes DNA; details: tags: His kept;His cleaved; copies: 1;1; label: surface-attached array probe
Sequence (P37231 29-505, chain 1 of 2): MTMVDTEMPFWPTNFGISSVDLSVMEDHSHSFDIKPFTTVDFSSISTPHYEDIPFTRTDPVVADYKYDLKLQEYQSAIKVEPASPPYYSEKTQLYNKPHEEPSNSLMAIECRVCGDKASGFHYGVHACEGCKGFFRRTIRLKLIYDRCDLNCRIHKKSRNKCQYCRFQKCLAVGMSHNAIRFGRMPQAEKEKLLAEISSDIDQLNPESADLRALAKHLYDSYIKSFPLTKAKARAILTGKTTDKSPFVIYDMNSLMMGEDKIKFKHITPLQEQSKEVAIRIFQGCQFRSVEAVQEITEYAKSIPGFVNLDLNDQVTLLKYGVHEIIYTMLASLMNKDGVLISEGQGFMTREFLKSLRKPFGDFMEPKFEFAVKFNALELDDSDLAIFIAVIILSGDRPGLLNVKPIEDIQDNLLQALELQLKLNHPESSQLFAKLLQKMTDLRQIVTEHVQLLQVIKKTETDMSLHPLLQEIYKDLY
Sequence (P19793 whole entry, chain 2 of 2): as the sequence (P19793 whole entry, chain 2 of 2) above

Row | Binder | binding signal
65 | B1 | 13.1 PBM z-score against 500 random probes
66 | B2 | 12.3 PBM z-score against 500 random probes
67 | B4 | 12.1 PBM z-score against 500 random probes
68 | B5 | 11.8 PBM z-score against 500 random probes
